# Assay results taken from PMC11886768 (2025).
# B1: CRY1 (third protein in the mammalian three-hybrid assay) [Arabidopsis] / E-COP1 [Arabidopsis] (parent complex)
# chain 1: MSGSVSGCGSGGCSIVWFRRDLRVEDNPALAAAVRAGPVIALFVWAPEEEGHYHPGRVSRWWLKNSLAQLDSSLRSLGTCLITKRSTDSVASLLDVVKSTGASQIFFNHLYDPLSLVRDHRAKDVLTAQGIAVRSFNADLLYEPWEVTDELGRPFSMFAAFWERCLSMPYDPESPLLPPKKIISGDVSKCVADPLVFEDDSEKGSNALLARAWSPGWSNGDKALTTFINGPLLEYSKNRRKADSATTSFLSPHLHFGEVSVRKVFHLVRIKQVAWANEGNEAGEESVNLFLKSIGLREYSRYISFNHPYSHERPLLGHLKFFPWAVDENYFKAWRQGRTGYPLVDAGMRELWATGWLHDRIRVVVSSFFVKVLQLPWRWGMKYFWDTLLDADLESDALGWQYITGTLPDSREFDRIDNPQFEGYKFDPNGEYVRRWLPELSRLPTDWIHHPWNAPESVLQAAGIELGSNYPLPIVGLDEAKARLHEALSQMWQLEAASRAAIENGSEEGLGDSAEVEEAPIEFPRDITMEETEPTRLNPNRRYEDQMVPSITSSLIRPEEDEESSLNLRNSVGDSRAEVPRNMVNTNQAQQRRAEPASNQVTAMIPEFNIRIVAESTEDSTAESSSSGRRERSGGIVPEWSPGYSEQFPSEENGIGGGSTTSSYLQNHHEILNWRRLSQTG
# chain 2: MEEISTDPVVPAVKPDPRTSSVGEGANRHENDDGGSGGSEIGAPDLDKDLLCPICMQIIKDAFLTACGHSFCYMCIITHLRNKSDCPCCSQHLTNNQLYPNFLLDKLLKKTSARHVSKTASPLDQFREALQRGCDVSIKEVDNLLTLLAERKRKMEQEEAERNMQILLDFLHCLRKQKVDELNEVQTDLQYIKEDINAVERHRIDLYRARDRYSVKLRMLGDDPSTRNAWPHEKNQIGFNSNSLSIRGGNFVGNYQNKKVEGKAQGSSHGLPKKDALSGSDSQSLNQSTVSMARKKRIHAQFNDLQECYLQKRRQLADQPNSKQENDKSVVRREGYSNGLADFQSVLTTFTRYSRLRVIAEIRHGDIFHSANIVSSIEFDRDDELFATAGVSRCIKVFDFSSVVNEPADMQCPIVEMSTRSKLSCLSWNKHEKNHIASSDYEGIVTVWDVTTRQSLMEYEEHEKRAWSVDFSRTEPSMLVSGSDDCKVKVWCTRQEASVINIDMKANICCVKYNPGSSNYIAVGSADHHIHYYDLRNISQPLHVFSGHKKAVSYVKFLSNNELASASTDSTLRLWDVKDNLPVRTFRGHTNEKNFVGLTVNSEYLACGSETNEVYVYHKEITRPVTSHRFGSPDMDDAEEEAGSYFISAVCWKSDSPTMLTANSQGTIKVLVLAA
# Variants of: B1
# Assay: luciferase complementation imaging (LCI); transfected N. benthamiana leaves, n = 14, CCD camera; value is the mean ('+'); median about 0.44, box about 0.22-0.68; parent: 1; read off a plot
row,ratio to parent,Variant
1,~0.43,"chain 1 V548A, chain 1 P549A"
